# Experimental data: patent publication US20230167182A1 (BIOSION, published 2023)
# Positions count from the first letter of the chain named.
# T1: macaca IL6R-his protein (macaca mulatta)
# T1 chain: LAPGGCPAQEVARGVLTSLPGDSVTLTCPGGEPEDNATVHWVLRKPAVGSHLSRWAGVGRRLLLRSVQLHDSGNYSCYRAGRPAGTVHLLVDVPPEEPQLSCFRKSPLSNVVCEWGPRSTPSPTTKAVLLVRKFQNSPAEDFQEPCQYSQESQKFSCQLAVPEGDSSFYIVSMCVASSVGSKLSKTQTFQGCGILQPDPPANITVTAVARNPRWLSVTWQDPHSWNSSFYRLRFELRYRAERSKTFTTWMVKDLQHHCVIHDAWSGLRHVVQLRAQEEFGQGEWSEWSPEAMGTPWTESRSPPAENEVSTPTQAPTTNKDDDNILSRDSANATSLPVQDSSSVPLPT
# B1: Chimeric 1H7 (antibody, human IgG1, kappa, V domains shown)
# VH: QVQLQQPGTELVKPGASVKLSCKASGYTFTNYWMHWVKQRPGQGLDWIGEINPTNGRTNYNENFKSKATLTVDKSSSTAYMQLSSLTSEDSAVYYCARLNTHYVFDSWGQGTTLTLSS
# VL: EIVLTQSPTTLAASPGEKITFTCSVSSSISSNYLHWYQQKPGFSPKLLISRTSTLASGVPARFSGSGSGTSYSLTIGTMEAEDVATYYCQQGSGIPFTFGSGTKLELKR
# notes: Mouse variable regions on human IgG1 / human kappa constant regions; also called chimeric antibody 1H7
# B2: Tocilizumab (antibody, human IgG1, kappa, V domains shown)
# VH: QVQLQESGPGLVRPSQTLSLTCTVSGYSITSDHAWSWVRQPPGRGLEWIGYISYSGITTYNPSLKSRVTMLRDTSKNQFSLRLSSVTAADTAVYYCARSLARTTAMDYWGQGSLVTVSS
# VL: DIQMTQSPSSLSASVGDRVTITCRASQDISSYLNWYQQKPGKAPKLLIYYTSRLHSGVPSRFSGSGSGTDFTFTISSLQPEDIATYYCQQGNTLPYTFGQGTKVEIKR
# notes: In house made; also called benchmark; Actemra
# B3: mouse anti-IL6R monoclonal antibody 1H7 (antibody, V domains shown)
# VH: B1 VH
# VL: EIVLTQSPTTLAASPGEKITFTCSVSSSISSNYLHWYQQKPGFSPKLLISRTSTLASGVPARFSGSGSGTSYSLTIGTMEAEDVATYYCQQGSGIPFTFGSGTKLELK
# notes: Mouse hybridoma mAb
# B4: humanized antibody hu1H7-V5 (antibody, human IgG1, kappa, V domains shown)
# VH: QVQLVQSGAEVKKPGASVKVSCKASGYTFTNYWMHWVRQAPGQGLEWIGEINPTNGRTNYNENFKSRVTLTVDTSTSTVYMELSSLRSEDTAVYYCARLNTHYVFDSWGQGTLVTVSS
# VL: EIVLTQSPGTLSLSPGERATLSCSVSSSISSNYLHWYQQKPGLSPRLLISRTSTLASGIPARFSGSGSGTEYTLTISRMQSEDFAVYYCQQGSGIPFTFGQGTKLEIKR
# notes: Human IgG1 / kappa
# B5: mouse anti-IL6R monoclonal antibody 3C2 (antibody, V domains shown)
# VH: B1 VH with N31T, M34I, D46E, T54S, N63H, Y80S, E89A, L116V
# VL: B3 VL with L11M, F21I, V25A, S50Y, T54N, A61T, R62H, L107I
# notes: Mouse hybridoma mAb
# B6: mouse anti-IL6R monoclonal antibody 1G1 (antibody, V domains shown)
# VH: B1 VH with T9A, N31S, Q39V, D46E, N63D, D73E, K74S, L83F, S107Y, L116V
# VL: B3 VL with T10I, S50Y, T54N, L107I
# notes: Mouse hybridoma mAb
# B7: mouse anti-IL6R monoclonal antibody 1H9 (antibody, V domains shown)
# VH: QVQLQQPGAELVKPGASVKLSCKASGYTFTSYWMHWVKLRPGQGLEWIGEINPTNGRTNYYEKFKNRATLTADKSSSTAYMQLSSLTFEDSAVYFCAKFHYSRWYFDVWGTGTTVTVSS
# VL: DIVMTQSQKFMSTSVGDRVSITCKASQNVGTAVVWYQQKPGQSPKLLINPASNRYTGVPDRFTGSGSGTDFTLTISNMQSEDLADYFCQQYSSYPLTFGAGTKLELK
# notes: Mouse hybridoma mAb
# B8: mouse anti-IL6R monoclonal antibody 1B5 (antibody, V domains shown)
# VH: B1 VH with T9A, N31S, D46E, T54S, S107Y, L116V
# VL: B3 VL with T10I, S50Y, T54N, L107I
# notes: Mouse hybridoma mAb
# B9: mouse anti-IL6R monoclonal antibody 1F7 (antibody, V domains shown)
# VH: QVQLQQPGAELVKPGASVKLSCKASDYTFTSYWMHWVKQRPGQGLEWIGEINPSNGRTNYNEKFKNKATLTVDKSSSTAYVQLYSLTSEDSAVYYCARLSIHYVFDYWGQGTTLTVSS
# VL: B3 VL with I2L, L11M, V25A, R51G, T54N, A61P, G77V, L107I
# notes: Mouse hybridoma mAb
# B10: mouse anti-IL6R monoclonal antibody 1D4 (antibody, V domains shown)
# VH: B1 VH with T9A, N31S, Q39V, D46E, N63D, D73N, K74S, S107Y, L116V
# VL: B3 VL with T10I, S50Y, T54N, L107I
# notes: Mouse hybridoma mAb
# Target: T1, macaca IL6R-his protein
# Test: indirect ELISA on plate-coated macaca IL6R-his
row,EC50 [nM],Binder
1,0.227,B1
2,0.201,B2
3,0.147,B3
4,0.242,B4

# Target: T2, human IL6R-Fc protein (human, biotin-labeled in the ELISAs (sites not given))
# T2 construct: In house made; also called biotin-labeled human IL6R-Fc protein
# Test: capture ELISA: antibody captured on anti-IgG F(ab')2 coated plate, then biotin-labeled human IL6R-Fc, streptavidin-HRP
# Description: For the capture ELISA, 96-well micro plates were coated with 2 μg/ml AffiniPure Goat Anti-Mouse IgG, F(ab′)₂ fragment specific (Jackson ImmunoResearch Laboratories, Inc., Cat #115-005-072) in PBS, 100 μl/well, and incubated for 2 hours at 37° C. Plates were washed once with wash buffer (PBS+0.05% v/v Tween-20, PBST) and then blocked with 200 μl/well blocking buffer (5% w/v non-fatty milk in PBST) overnight at 4° C. […] Plates containing captured anti-IL6R antibodies were incubated with biotin-labeled human IL6R-Fc protein (prepared in house, SEQ ID NO: 43, 39.5 ng/ml in 2.5% w/v non-fatty milk in PBST, 100 μl/well) for 40 minutes at 37° C., washed 4 times, and incubated with streptavidin conjugated HRP (1:10000 dilution in PBST, Jackson ImmunoResearch Laboratories, Inc., Cat #016-030-084, 100 μl/well) for 40 minutes at 37° C. After a final wash, plates were incubated with 100 μl/well ELISA substrate TMB (InnoReagents, Cat #TMB-S-002). The reaction was stopped 3-10 minutes later at room temperature with 50 μl/well 1M H₂SO₄, and the absorbance of each well was read on a microplate reader using dual wavelength mode at 450 nm for TMB and 630 nm as the reference wavelength. Then the OD (450-630) values were plotted against antibody concentration. Data was analyzed using Graphpad Prism software and EC₅₀ values were reported.
# For the capture ELISA, 96-well micro plates were coated with 2 μg/ml goat anti-human IgG (AffiniPure Goat Anti-Human IgG, F(ab′)₂ fragment specific, Jackson ImmunoResearch Laboratories, Inc., Cat #109-005-097) instead of goat anti-mouse IgG F(ab′)₂ fragment, 100 μl/well.
# Target sequence in this assay (chain, as listed by the source limits assumed): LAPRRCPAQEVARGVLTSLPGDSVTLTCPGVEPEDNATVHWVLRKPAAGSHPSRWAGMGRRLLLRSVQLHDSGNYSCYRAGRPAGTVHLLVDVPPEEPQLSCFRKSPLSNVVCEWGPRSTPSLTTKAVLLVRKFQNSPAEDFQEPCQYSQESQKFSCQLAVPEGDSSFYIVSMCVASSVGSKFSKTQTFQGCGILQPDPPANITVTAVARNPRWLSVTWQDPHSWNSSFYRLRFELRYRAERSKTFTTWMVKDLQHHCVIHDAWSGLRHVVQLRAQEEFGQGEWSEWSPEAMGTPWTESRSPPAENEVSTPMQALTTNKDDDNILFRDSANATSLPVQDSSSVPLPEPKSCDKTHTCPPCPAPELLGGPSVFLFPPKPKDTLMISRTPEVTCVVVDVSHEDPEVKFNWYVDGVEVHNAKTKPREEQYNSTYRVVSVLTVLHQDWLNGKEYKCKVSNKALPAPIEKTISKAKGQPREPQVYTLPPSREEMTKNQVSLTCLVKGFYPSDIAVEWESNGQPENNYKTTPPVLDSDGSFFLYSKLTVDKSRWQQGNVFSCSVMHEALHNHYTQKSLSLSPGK
row,EC50 [nM],Binder
1,0.201,B1
2,0.504,B2
3,0.164,B3
4,0.31,B4

# Target: T2, human IL6R-Fc protein
# Test: ligand blocking ELISA: antibody pre-incubated with biotin-labeled human IL6R-Fc, added to plate-coated human IL6 (blocked ligand: human IL6)
# Description: (§1) The next day, anti-IL6R antibodies or controls were diluted with biotin labeled human IL6R-Fc protein (prepared in house, SEQ ID NO: 43, 39.5 ng/ml in 2.5% w/v non-fatty milk in PBST), starting at 100 nM with a 4-fold serial dilution, and incubated at room temperature for 40 minutes. […] Plates were washed for 4 times using wash buffer, and added and incubated with 100 μl/well of streptavidin conjugated HRP (1:10000 dilution in PBST buffer, Jackson ImmunoResearch Laboratories, Inc., Cat #016-030-084) for 40 minutes at 37° C. Plates were washed again using wash buffer. Finally, TMB was added and the reaction was stopped using 1M H₂SO₄. The absorbance was read on a microplate reader using dual wavelength mode with 450 nm for TMB and 630 nm as the reference wavelength, and then the OD (450-630) values were plotted against antibody concentration. Data was analyzed using Graphpad Prism software and IC₅₀ values were reported.
row,IC50 [nM],Binder
1,2.51,B2
2,0.704,B5
3,~1.44,B6

# Target: T2, human IL6R-Fc protein
# Test: as above
# Remark: another data set of the same source
# Description: as §1
row,IC50 [nM],Binder
1,1.05,B7
2,2.54,B2
3,0.601,B3

# Target: T2, human IL6R-Fc protein
# Test: as above
# Remark: another data set of the same source
# Target sequence in this assay (chain, as listed by the source limits assumed): as above
row,IC50 [nM],Binder
1,0.261,B1
2,0.773,B2
3,0.231,B3
4,0.281,B8

# Target: T2, human IL6R-Fc protein
# Test: benchmark blocking ELISA: antibody pre-incubated with biotin-labeled human IL6R-Fc, added to plate-coated Tocilizumab (competitor: Tocilizumab)
# Description: ELISA plates were washed once with wash buffer (PBS+0.05% v/v Tween-20, PBST) and then blocked with 200 μl/well blocking buffer (5% w/v non-fatty milk in PBST) overnight at 4° C.
# The next day, the anti-IL6R antibodies of the disclosure or controls were diluted with biotin labeled human IL6R-Fc protein (SEQ ID NO: 43, 13.6 ng/ml in 2.5% w/v non-fatty milk in PBST), starting at 100 nM with a 5-fold serial dilution, and incubated at room temperature for 40 minutes. […] After incubation at 37° C. for 40 minutes, plates were washed 4 times using wash buffer. Then streptavidin conjugated HRP was added, and the plates were incubated for 40 minutes at 37° C. The plates were finally washed using wash buffer, and added with TMB. The reaction was stopped using 1M […], and the absorbance was read on a microplate reader using dual wavelength mode with 450 nm for TMB and 630 nm as the reference wavelength. The OD (450-630) values were plotted against antibody concentration. Data was analyzed using Graphpad Prism software and IC₅₀ values were reported.
row,IC50 [nM],Binder
1,2.58,B2
2,0.311,B9
3,0.467,B10
